Source: paper PMC12649849

Target: Protein A on the ProA BLI sensor (Staphylococcus aureus) (UniProt P38507)
Experiment: BLI

## ChromPure mouse IgG (whole molecule) (antibody)
  koff: 0.00121 s⁻¹
  kon: 92500 M⁻¹ s⁻¹
